Reference: publication PMC11609826 (Cancer Discovery, 2024)

Columns and labels:
Assay in all cases: ELISA
[1] = target: inducible T-cell costimulator (ICOS), recombinant (Homo sapiens (assumed), UniProt Q9Y6W8)
[2] = target: B- and T-lymphocyte attenuator (BTLA), recombinant (Homo sapiens (assumed), UniProt Q7Z6A9)
[3] = target: PD-1, recombinant (Homo sapiens (assumed), UniProt Q15116)
[4] = target: CD28, recombinant (Homo sapiens (assumed), UniProt P10747)

Measured: binding result

inducible T-cell costimulator (ICOS), recombinant, sequence (Q9Y6W8 21-199): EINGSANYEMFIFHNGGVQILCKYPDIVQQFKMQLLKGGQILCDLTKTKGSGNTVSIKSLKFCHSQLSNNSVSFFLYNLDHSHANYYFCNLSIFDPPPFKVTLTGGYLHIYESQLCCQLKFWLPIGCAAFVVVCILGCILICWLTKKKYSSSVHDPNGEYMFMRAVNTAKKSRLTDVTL
PD-1, recombinant, sequence (Q15116 25-288): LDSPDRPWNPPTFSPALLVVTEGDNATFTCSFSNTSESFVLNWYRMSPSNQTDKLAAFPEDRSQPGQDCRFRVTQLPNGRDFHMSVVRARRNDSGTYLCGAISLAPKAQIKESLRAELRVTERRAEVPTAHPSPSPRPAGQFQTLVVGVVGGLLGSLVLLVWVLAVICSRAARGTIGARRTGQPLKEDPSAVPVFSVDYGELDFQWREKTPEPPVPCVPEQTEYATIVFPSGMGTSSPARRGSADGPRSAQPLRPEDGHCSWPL

B1: Botensilimab (antibody, V domains shown)
VH: EVQLVESGGGLVKPGGSLRLSCAASGFTFSSYSMNWVRQAPGKGLEWVSSISSSSSYIYYAESVKGRFTISRDNAKNSLYLQMNSLRAEDTAVYYCARVGLFGPFDIWGQGTLVTVSS
VL: EIVLTQSPGTLSLSPGERATLSCRASQSVSRYLGWYQQKPGQAPRLLIYGASTRATGIPDRFSGSGSGTDFTLTITRLEPEDFAVYYCQQYGSSPWTFGQGTKVEIK
no binding (tested: 1,000 ng/mL): [1] | [2] | [3] | [4]
